Test results as given in publication PMC6770826, “HDX and Native Mass Spectrometry Reveals the Different Structural Basis for Interaction of the Staphylococcal Pathogenicity Island Repressor Stl with Dimeric and Trimeric Phage dUTPases” (Biomolecules, 2019).

B1: φNM1 phage dUTPase (enzyme)
chain: TNTLTIDQLQELLQIQKEFDDRIPTLNLRDSKIAYVVEFFEWFNTLETFKNWKKKPGKPLDVQLDELADMLAFGLSIANQVGVSSEEIKEAIESSFKDTEFHKMFNFKDKEFAQDAVVSTPQIIFKEFYPDQQAIVIVIDIAYNLYSIDQLIDAYKKKMKRNHERQDGTADAGKGYV
notes: dUTPase of Staphylococcus aureus phage φNM1, Uniprot ID A0EWK2, residues 2-178; monomer mass 20976 Da printed; also called DUTφNM1; homodimeric φNM1 dUTPase; source: E. coli BL21 Rosetta (DE3), purified (glutathione-agarose, on-column thrombin cleavage); not shown: GST, N-terminal, cleaved

Legend:
[1] = target: φNM1 phage dUTPase (Staphylococcus aureus phage φNM1) (UniProt A0EWK2)
[2] = target: φNM1 phage dUTPase (Staphylococcus aureus phage φNM1) (UniProt A0EWK2); assay: native MS; electrospray QTOF, positive ion mode; proteins at 40 μM in 5 mM NH4HCO3 pH 8.0
[3] = target: Stl repressor protein of S. aureus pathogenicity island SaPIbov1 (Staphylococcus aureus (pathogenicity island SaPIbov1)); assay: cross-linking; disuccinimidyl suberate (DSS, 20 mM), 20 °C, 1 h; 20 μM each protein alone or 1:1 mixture (40 μM total); SDS-PAGE
[4] = target: φNM1 phage dUTPase (Staphylococcus aureus phage φNM1) (UniProt A0EWK2); assay: as above
[5] = target: φNM1 phage dUTPase (Staphylococcus aureus phage φNM1) (UniProt A0EWK2); assay: enzyme inhibition (steady-state dUTPase activity); DUTφNM1 with Stl at 0-300 nM, pre-incubated 5 min; 293 K; 1 mM HEPES-HCl pH 7.5, 5 mM MgCl2, 150 mM KCl, phenol red; quadratic binding equation fitted; apparent
[6] = target: the molecule itself; assay: cross-linking; disuccinimidyl suberate (DSS, 20 mM), 20 °C, 1 h; 20 μM each protein alone or 1:1 mixture (40 μM total); SDS-PAGE

| Molecule | maximal inhibition of the steady-state dUTPase activity of DUTφNM1 by Stl (0-300 nM) [1] [%] | stoichiometry N (Stl per DUTφNM1) [2] | stoichiometry N [3] | stoichiometry N (Stl per DUTφNM1) [4] | Ki [5] [nM] | stoichiometry N [6] |
| --- | --- | --- | --- | --- | --- | --- |
| Stl repressor protein of S. aureus pathogenicity island SaPIbov1 (natural protein) | 40 | 1 | 2 | 1 | 34 |  |
| B1 |  |  |  |  |  | 2 |
